# B1: Protein FAM9B (Homo sapiens), Q8IZU0 (parent)
# chain: MAAWGKKHAGKDPVRDECEERNRFTETREEDVTDEHGEREPFAETDEHTGANTKKPEDTAEDLTAKRKRMKMDKTCSKTKNKSKHALRKKQLKRQKRDYIHSLKLLNVLEEYITDEQKEEEEEEGEEEELIRIFQEQQKKWQQYRSVRRERLKEMKLLRDQFVKALEDFEDLCDRVFSDEDSELDN
# partner: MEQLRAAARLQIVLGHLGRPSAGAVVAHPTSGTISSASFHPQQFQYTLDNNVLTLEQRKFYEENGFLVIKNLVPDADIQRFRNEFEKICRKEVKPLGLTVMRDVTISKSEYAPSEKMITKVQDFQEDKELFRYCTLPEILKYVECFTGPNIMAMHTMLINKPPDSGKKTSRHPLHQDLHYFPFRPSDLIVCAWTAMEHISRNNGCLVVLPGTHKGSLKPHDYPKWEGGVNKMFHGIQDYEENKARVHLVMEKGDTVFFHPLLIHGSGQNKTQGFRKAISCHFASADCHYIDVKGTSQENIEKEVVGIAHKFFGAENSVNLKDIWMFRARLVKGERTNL
# B2: Kinesin-like protein KIF20A (Homo sapiens), O95235 (parent)
# chain: MSQGILSPPAGLLSDDDVVVSPMFESTAADLGSVVRKNLLSDCSVVSTSLEDKQQVPSEDSMEKVKVYLRVRPLLPSELERQEDQGCVRIENVETLVLQAPKDSFALKSNERGIGQATHRFTFSQIFGPEVGQASFFNLTVKEMVKDVLKGQNWLIYTYGVTNSGKTHTIQGTIKDGGILPRSLALIFNSLQGQLHPTPDLKPLLSNEVIWLDSKQIRQEEMKKLSLLNGGLQEEELSTSLKRSVYIESRIGTSTSFDSGIAGLSSISQCTSSSQLDETSHRWAQPDTAPLPVPANIRFSIWISFFEIYNELLYDLLEPPSQQRKRQTLRLCEDQNGNPYVKDLNWIHVQDAEEAWKLLKVGRKNQSFASTHLNQNSSRSHSIFSIRILHLQGEGDIVPKISELSLCDLAGSERCKDQKSGERLKEAGNINTSLHTLGRCIAALRQNQQNRSKQNLVPFRDSKLTRVFQGFFTGRGRSCMIVNVNPCASTYDETLHVAKFSAIASQLVHAPPMQLGFPSLHSFIKEHSLQVSPSLEKGAKADTGLDDDIENEADISMYGKEELLQVVEAMKTLLLKERQEKLQLEMHLRDEICNEMVEQMQQREQWCSEHLDTQKELLEEMYEEKLNILKESLTSFYQEEIQERDEKIEELEALLQEARQQSVAHQQSGSELALRRSQRLAASASTQQLQEVKAKLQQCKAELNSTTEELHKYQKMLEPPPSAKPFTIDVDKKLEEGQKNIRLLRTELQKLGESLQSAERACCHSTGAGKLRQALTTCDDILIKQDQTLAELQNNMVLVKLDLRKKAACIAEQYHTVLKLQGQVSAKKRLGTNQENQQPNQQPPGKKPFLRNLLPRTPTCQSSTDCSPYARILRSRRSPLLKSGPFGKKY
# partner: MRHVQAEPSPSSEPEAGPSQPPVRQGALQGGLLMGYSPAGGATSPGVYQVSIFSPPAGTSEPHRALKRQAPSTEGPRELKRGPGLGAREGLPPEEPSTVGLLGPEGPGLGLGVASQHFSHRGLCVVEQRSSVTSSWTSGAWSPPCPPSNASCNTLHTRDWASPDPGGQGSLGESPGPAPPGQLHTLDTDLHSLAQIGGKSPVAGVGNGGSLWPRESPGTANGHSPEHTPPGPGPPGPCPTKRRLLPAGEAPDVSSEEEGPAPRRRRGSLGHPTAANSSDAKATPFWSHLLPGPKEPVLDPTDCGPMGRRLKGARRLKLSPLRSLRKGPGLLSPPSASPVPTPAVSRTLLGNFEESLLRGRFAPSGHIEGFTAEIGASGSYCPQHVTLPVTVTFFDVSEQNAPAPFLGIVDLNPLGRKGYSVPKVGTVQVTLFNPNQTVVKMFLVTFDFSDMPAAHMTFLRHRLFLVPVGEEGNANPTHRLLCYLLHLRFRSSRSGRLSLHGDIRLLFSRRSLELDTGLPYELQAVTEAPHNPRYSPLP
# B3: Beta-taxilin (Homo sapiens), Q8N3L3 (parent)
# chain: MEANHSEQLSAERQSTPPGDSSSLPSHNGLEKEDGQDSPTPVQPPEKEASVHPDISEELNRQLEDIINTYGSAASTAGKEGSARASEQPENAESPDNEDGDCEETTEEAGREPVASGEPPTVKEPVSNKEQKLEKKILKGLGKEANLLMQNLNKLQTPEEKFDFLFKKYAELLDEHRTEQKKLKLLQKKQVQIQKEKDQLQGEHSRAILARSKLESLCRELQRHNKTLKEEALQRAREEEEKRKEITSHFQSTLTDIQGQIEQQSERNMKLCQENTELAEKLKSIIDQYELREEHLDKIFKHRELQQKLVDAKLEQAQEMMKEAEERHKREKEYLLNQAAEWKLQAKVLKEQETVLQAQLTLYSGRFEEFQSTLTKSNEVFATFKQEMDKTTKKMKKLEKDTATWKARFENCNKALLDMIEEKALRAKEYECFVMKIGRLENLCRALQEERNELHKKIRDAEISEKDDQSQHNSDEEPESNVSVDQEIDAEEVNSVQTAVKNLATAFMIIHHPESTPHQSKETQPEIGSSQESADAALKEPEQPPLIPSRDSESPLPPLTPQAEAEGGSDAEPPSKASNSPAGLGAETQCEGLPVGAQADQASWKPEAEASGQAPQAPTEASLQKMEADVPAPACAAEEHVAAMVPACEPSRQPPRAAAEELPVGASAGPQPRNVADTNLEGVD
# partner: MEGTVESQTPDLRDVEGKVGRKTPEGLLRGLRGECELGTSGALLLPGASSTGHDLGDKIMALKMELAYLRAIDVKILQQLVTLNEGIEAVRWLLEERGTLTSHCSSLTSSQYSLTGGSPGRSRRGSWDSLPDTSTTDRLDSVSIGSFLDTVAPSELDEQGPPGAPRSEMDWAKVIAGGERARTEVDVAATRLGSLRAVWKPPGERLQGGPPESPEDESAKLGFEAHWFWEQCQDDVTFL
# B4: Protein LRATD2 (Homo sapiens), Q96KN1 (parent)
# chain: MGNQVEKLTHLSYKEVPTADPTGVDRDDGPRIGVSYIFSNDDEDVEPQPPPQGPDGGGLPDGGDGPPPPQPQPYDPRLHEVECSVFYRDECIYQKSFAPGSAALSTYTPENLLNKCKPGDLVEFVSQAQYPHWAVYVGNFQVVHLHRLEVINSFLTDASQGRRGRVVNDLYRYKPLSSSAVVRNALAHVGAKERELSWRNSESFAAWCRYGKREFKIGGELRIGKQPYRLQIQLSAQRSHTLEFQSLEDLIMEKRRNDQIGRAAVLQELATHLHPAEPEEGDSNVARTTPPPGRPPAPSSEEEDGEAVAH
# partner: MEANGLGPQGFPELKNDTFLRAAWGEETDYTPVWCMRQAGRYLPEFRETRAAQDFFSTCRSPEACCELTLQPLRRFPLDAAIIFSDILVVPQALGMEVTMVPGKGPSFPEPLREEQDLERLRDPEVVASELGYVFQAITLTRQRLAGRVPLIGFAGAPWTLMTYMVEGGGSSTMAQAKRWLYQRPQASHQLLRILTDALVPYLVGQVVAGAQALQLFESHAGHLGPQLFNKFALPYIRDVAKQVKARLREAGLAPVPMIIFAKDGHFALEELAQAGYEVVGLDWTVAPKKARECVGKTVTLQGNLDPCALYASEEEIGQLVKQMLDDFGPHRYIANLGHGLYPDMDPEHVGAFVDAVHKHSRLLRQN
# B5: IQ motif and ubiquitin-like domain-containing protein (Homo sapiens), Q8NA54 (parent)
# chain: MSNQQEKYEAQNIVNSTEESDDAFDTVTIPVPSEEPQESDQTEEHESGIEQFSESHAIHVEEQSDQSFSSLEPDNEQLMEEVISPRQVSYTPQHHEKQYAMQRPNDDSLAFLDKIKSVKESLQESVEDSLATVKVVLIPVGQEIVIPFKVDTILKYLKDHFSHLLGIPHSVLQIRYSGKILKNNETLVQHGVKPQEIVQVEIFSTNPDLYPVRRIDGLTDVSQIITVTVQTGLDQYQQVPVEIVKSDFHKPFLGGFRHKVTGVEYHNAGTQTVPKRIPERLSIFCRDTQTVFQKKNLQQTTNTTSTQMTNIGVYVSNMTDKLVTPGKYFSAAEYHAQRLKAVIVIQTYYRQWHAKIFVENLRRQKSLRLEWETQQELRKIREKEEWIKLDYHRRHNPKTNEDFEFLYNALEFWRQEELTRINQSFTGAERKAALCELLEKETQIIASIGRHRYIAYMANQEAAIQAFLDKCSAPKIWRTPNGKTIEMDTQFTIRARELQNIYKCIMLKNISQDERLDVLLTLKHTVKEHECKLTQEILELIDREVDLMMRGVKHHNLEGLRKRIATLFFHYIKTPLFNPEVAKYLKVPQDPLKFYKKIYFCHSCQLYLPSTEFSVSSTSRRIYRCRNCINLQNEAQKRESFLKYKCLLQQLYYTEADYEDDSKIAFLMQLQDIQYLTENIWASQSVLSACDNLSDLVMVRWNKSLEWSPWNCILLTKDEAAAHLKLTSIEEGYERSFIHKIKHKHILAKNYFSQVPVLASFILDDGEIDEIRWKYHSDTTPKIIESQRPPH
# partner: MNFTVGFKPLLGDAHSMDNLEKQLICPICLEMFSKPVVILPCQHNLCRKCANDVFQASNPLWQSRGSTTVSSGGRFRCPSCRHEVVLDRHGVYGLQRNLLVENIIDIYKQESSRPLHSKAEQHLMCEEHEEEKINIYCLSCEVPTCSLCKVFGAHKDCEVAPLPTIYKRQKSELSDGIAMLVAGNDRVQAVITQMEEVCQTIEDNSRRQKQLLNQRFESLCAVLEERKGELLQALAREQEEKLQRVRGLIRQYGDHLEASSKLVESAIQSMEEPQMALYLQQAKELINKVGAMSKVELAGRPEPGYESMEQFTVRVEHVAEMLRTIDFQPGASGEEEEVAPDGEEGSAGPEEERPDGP
# Variants of: B1
# Conditions: with pahx_human PHYH
row,Variant,effect of a mutation on the interaction
1,R23H,with no effect

# Variants of: B2
# Conditions: with atosb_human ATOSB
row,Variant,effect of a mutation on the interaction
1,S44F,disrupting interaction strength

# Variants of: B3
# Conditions: with lura1_human LURAP1, Q96LR2
row,Variant,effect of a mutation on the interaction
1,T523I,with no effect
2,T361A,with no effect

# Variants of: B4
# Conditions: with dcup_human UROD
row,Variant,effect of a mutation on the interaction
1,P71T,with no effect

# Variants of: B5
# Conditions: with tri54_human TRIM54, Q9BYV2
row,Variant,effect of a mutation on the interaction
1,V126M,with no effect

# From IntAct's records for PubMed 31515488
